In US20140170239A1 (VRIJE UNIVERSITEIT BRUSSEL, published 2014):
Where no end group is shown, it is not given here.

T1: biotinylated p53β peptide (human, also: biotinylated, site not given here)
T1 construct: also called biotinylated p53-aggregating peptide
T1 peptide: ILTIITL

B1: CBPC3_HUMAN peptide ILTITTP (peptide)
peptide: ILTITTP
notes: spot-synthesized on membrane; also called position Nr 39
B2: RTEL1_HUMAN peptide ILTSGTL (peptide)
peptide: ILTSGTL
notes: spot-synthesized on membrane; also called position Nr 36
B3: DIP2B_HUMAN peptide ILTSQTL (peptide)
peptide: ILTSQTL
notes: spot-synthesized on membrane; also called position Nr 20
B4: PRA10_HUMAN peptide FLTIFTL (peptide)
peptide: FLTIFTL
notes: spot-synthesized on membrane; also called position Nr 25
B5: HEAT1_HUMAN peptide ILTKISL (peptide)
peptide: ILTKISL
notes: spot-synthesized on membrane; also called position Nr 13
B6: TAGAP_HUMAN peptide ILTILCL (peptide)
peptide: ILTILCL
notes: spot-synthesized on membrane; also called position Nr 5
B7: CT132_HUMAN peptide IKSIITL (peptide)
peptide: IKSIITL
notes: spot-synthesized on membrane; also called position Nr 45
B8: BCL6B_HUMAN peptide ILTDVTL (peptide)
peptide: ILTDVTL
notes: spot-synthesized on membrane; also called position Nr 40
B9: AL2SA_HUMAN peptide GLTIPTL (peptide)
peptide: GLTIPTL
notes: spot-synthesized on membrane; also called position Nr 52
B10: PGTA_HUMAN peptide LLTIILL (peptide)
peptide: LLTIILL
notes: spot-synthesized on membrane; also called position Nr 9
B11: EPMIP_HUMAN peptide LLTIINL (peptide)
peptide: LLTIINL
notes: spot-synthesized on membrane; also called position Nr 6
B12: NOL11_HUMAN peptide ILTKYTL (peptide)
peptide: ILTKYTL
notes: spot-synthesized on membrane; also called position Nr 37
B13: CND2_HUMAN peptide ILTKSTL (peptide)
peptide: ILTKSTL
notes: spot-synthesized on membrane; also called position Nr 51
B14: MYST3_HUMAN peptide ILTKPTL (peptide)
peptide: ILTKPTL
notes: spot-synthesized on membrane; also called position Nr 28
B15: KV122_HUMAN peptide ILTISSL (peptide)
peptide: ILTISSL
notes: spot-synthesized on membrane; also called position Nr 22
B16: DHX33_HUMAN peptide ILTIVSL (peptide)
peptide: ILTIVSL
notes: spot-synthesized on membrane; also called position Nr 4
B17: PTPC1_HUMAN peptide IKTIINL (peptide)
peptide: IKTIINL
notes: spot-synthesized on membrane; also called position Nr 33
B18: CM031_HUMAN peptide KLTIITS (peptide)
peptide: KLTIITS
notes: spot-synthesized on membrane; also called position Nr 53
B19: CYTIP_HUMAN peptide LLTIETL (peptide)
peptide: LLTIETL
notes: spot-synthesized on membrane; also called position Nr 24
B20: GCDH_HUMAN peptide MLTEITL (peptide)
peptide: MLTEITL
notes: spot-synthesized on membrane; also called position Nr 19
B21: P73_HUMAN peptide ILIIITL (peptide)
peptide: ILIIITL
notes: spot-synthesized on membrane; also called p73β; position Nr 35
B22: P53_HUMAN peptide ILTIITL (immobilised spot) (peptide)
peptide: ILTIITL
notes: spot-synthesized on membrane; also called p53β; position Nr 1
B23: P63_HUMAN peptide ILIIVTL (peptide)
peptide: ILIIVTL
notes: spot-synthesized on membrane; also called p63β; position Nr 16
B24: SPEF2_HUMAN peptide ILSIDTL (peptide)
peptide: ILSIDTL
notes: spot-synthesized on membrane; also called position Nr 54
B25: DYH3_HUMAN peptide ILTFKTL (peptide)
peptide: ILTFKTL
notes: spot-synthesized on membrane; also called position Nr 12
B26: LONF2_HUMAN peptide ILVIITR (peptide)
peptide: ILVIITR
notes: spot-synthesized on membrane; also called position Nr 48
B27: CC132_HUMAN peptide ILTNTTL (peptide)
peptide: ILTNTTL
notes: spot-synthesized on membrane; also called position Nr 21
B28: TAF4B_HUMAN peptide ILKQITL (peptide)
peptide: ILKQITL
notes: spot-synthesized on membrane; also called position Nr 49
B29: CD2A1_HUMAN peptide ILRQITL (peptide)
peptide: ILRQITL
notes: spot-synthesized on membrane; also called position Nr 56
B30: BPA1_HUMAN peptide ILKNITL (peptide)
peptide: ILKNITL
notes: spot-synthesized on membrane; also called position Nr 46
B31: DHX29_HUMAN peptide ILQIITE (peptide)
peptide: ILQIITE
notes: spot-synthesized on membrane; also called position Nr 44
B32: LRC40_HUMAN peptide IHAIITL (peptide)
peptide: IHAIITL
notes: spot-synthesized on membrane; also called position Nr 27
B33: SMG1_HUMAN peptide ILTLIEL (peptide)
peptide: ILTLIEL
notes: spot-synthesized on membrane; also called position Nr 41
B34: FLAG-tagged Cyclin-I2 (other, human, UniProt Q6ZMN8 1-369, looked up)
chain: MASGAQLPPQPSSSEVSAVQSPGGRPGAGLEETALGVPLPPSPGEAPLPRSNRSRCPGTRQPGAASLHAASAAVPVRPRRGTAPAGKTADAVPAAAPEQAPRPAPQSRKPRNLEGDLDERRLLCHLQLAQDREARLWRGGKPQDEICDAFEEVVLWLLRLQNTFYFSQSTFNLALTIFGRLLISVKVKEKYLHCATITSLRLAAKVNEEEEFIPQVKDFTKHYGSDYSPNELLRMELAILDRLHWDLYIGTPLDFLTIFHALVVLSWPHVLELLPQRNPSLHVASLTRQLQHCMAGHQLLQFKGSTLALVIITLELERLMPGWCAPISDLLKKAQVGDMQYSCCKELVMQQLRSLQSSSCTDNFVSPAN
notes: also called CCNI2_HUMAN; CCNI2
B35: CCNI2_HUMAN peptide ALVIITL (peptide)
peptide: ALVIITL
notes: spot-synthesized on membrane; also called position Nr 23
B36: ANXA6_HUMAN peptide ILDIITS (peptide)
peptide: ILDIITS
notes: spot-synthesized on membrane; also called annexin-6 peptide fragment; position Nr 29
B37: MX2_HUMAN peptide DLTIIDL (peptide)
peptide: DLTIIDL
notes: spot-synthesized on membrane; also called position Nr 50
B38: TRI18_HUMAN peptide CLTIITG (peptide)
peptide: CLTIITG
notes: spot-synthesized on membrane; also called position Nr 26
B39: BN3D2_HUMAN peptide ALTFITL (peptide)
peptide: ALTFITL
notes: spot-synthesized on membrane; also called position Nr 7
B40: METH_HUMAN peptide ILTIGTG (peptide)
peptide: ILTIGTG
notes: spot-synthesized on membrane; also called methionine synthase (METH) segment; position Nr 38
B41: KV117_HUMAN peptide TLTISTL (peptide)
peptide: TLTISTL
notes: spot-synthesized on membrane; also called position Nr 15
B42: BPTF_HUMAN peptide VLTISTL (peptide)
peptide: VLTISTL
notes: spot-synthesized on membrane; also called position Nr 10
B43: CASP8_HUMAN peptide ILTILTE (peptide)
peptide: ILTILTE
notes: spot-synthesized on membrane; also called caspase-8 (CASP8) segment; position Nr 11
B44: PK3C3_HUMAN peptide ILQIISL (peptide)
peptide: ILQIISL
notes: spot-synthesized on membrane; also called position Nr 18
B45: RFC5_HUMAN peptide ILTEIHL (peptide)
peptide: ILTEIHL
notes: spot-synthesized on membrane; also called position Nr 34
B46: Control peptide RRPILTIITLEDGS (peptide)
peptide: RRPILTIITLEDGS
notes: spot-synthesized on membrane; longer peptide that holds ILTIITL; also called position Nr 2
B47: KLH32_HUMAN peptide ILCDITL (peptide)
peptide: ILCDITL
notes: spot-synthesized on membrane; also called position Nr 43
B48: CGRF1_HUMAN peptide ITTGITL (peptide)
peptide: ITTGITL
notes: spot-synthesized on membrane; also called CGRF1 segment; position Nr 30
B49: CD041_HUMAN peptide ITTVITL (peptide)
peptide: ITTVITL
notes: spot-synthesized on membrane; also called position Nr 8
B50: VATA_HUMAN peptide IYTGITL (peptide)
peptide: IYTGITL
notes: spot-synthesized on membrane; also called position Nr 14
B51: ZN830_HUMAN peptide ILTIKEL (peptide)
peptide: ILTIKEL
notes: spot-synthesized on membrane; also called position Nr 31
B52: MP2K4_HUMAN peptide ILGKITL (peptide)
peptide: ILGKITL
notes: spot-synthesized on membrane; also called position Nr 17
B53: SCC4_HUMAN peptide IQTISTL (peptide)
peptide: IQTISTL
notes: spot-synthesized on membrane; also called position Nr 55
B54: CPNE2_HUMAN peptide ILLIITD (peptide)
peptide: ILLIITD
notes: spot-synthesized on membrane; also called Copine-2 (CPNE2) segment; position Nr 42
B55: CXL11_HUMAN peptide IEVIITL (peptide)
peptide: IEVIITL
notes: spot-synthesized on membrane; also called position Nr 32
B56: PDS5A_HUMAN peptide IVTIITA (peptide)
peptide: IVTIITA
notes: spot-synthesized on membrane; also called position Nr 3
B57: RTTN_HUMAN peptide ILTICTK (peptide)
peptide: ILTICTK
notes: spot-synthesized on membrane; also called position Nr 47

Columns and labels:
[1] = molecular target: T1, biotinylated p53β peptide; experiment: peptide-binding assay: peptide spots on membrane, biotinylated p53β peptide, streptavidin-HRP;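 as to Binding intensity (normalized): Membrane-bound synthesized peptide spots exposed to the biotinylated p53 aggregation-prone peptide, bound material revealed via streptavidin-HRP and chemiluminescence, spot signal reflecting binding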
Method: (§1) Subsequently, the ability of the selected peptides to interact with p53β using an in vitro peptide-binding assay was empirically determined. Therefore, the 56 selected peptides were spot-synthesized on a cellulose membrane, which was subsequently incubated with biotinylated p53β peptide (FIG. 17, panel b). After washing, the membrane was treated with streptavidine-HRP to detect p53β binding (FIG. 17, panel c).
(§2) Peptides of selected sequences were spot synthesized on PVDF membrane (PepSpot, JPT). The membranes were blocked by 1% BSA in phosphate-buffered saline for 1 hour at room temperature, and then incubated with biotinylated peptide containing the p53-aggregating sequence for 1 hour. After rinsing with 0.1% TWEEN® 20 in 25 mM MES buffer pH 7.0, membranes were incubated in HRP-labeled Streptavidin (Thermo) and visualized with electrochemical luminescence (ECL) system.

[2] = molecular target: T1, biotinylated p53β peptide; experiment: as above
Method: as §1, §2

[3] = molecular target: T2, HA-tagged wild-type p53 (human, UniProt P04637 1-393); experiment: co-IP, HeLa cells, anti-FLAG IP, anti-HA blot
T2 construct: range 1-393; expressed in cells, tested in cell lysate; also called WT p53; p53-HA
Method: HeLa (Human epithelial carcinoma) cells were cultured in DMEM supplemented with 10% fetal calf serum (Gibco), L-glutamine (4 mM), penicillin (100 U/ml), and streptomycin (100 U/ml). Proliferating cell cultures were maintained in a 5% CO2-humidified incubator at 37° C. […] The complex of DNA and FuGENE HD was prepared in 500 μL DMEM and incubated for 20 minutes before adding to cells. For stable transfection, DMEM medium containing 10% fetal calf serum and 500 μg/mL G418 was used to select colonies that carried the transfected vector for six weeks, and expression of the vector was validated by Western blot. Stably transfected cells were maintained in medium containing 250 μg/mL G418 for further analysis. Transfection of siRNA for p53 (Santa Cruz) was performed using X-tremeGENE siRNA transfection reagent (Roche) according to the manufacturer's instructions.
Hela cells co-transfected with mutant HA-p53 and FLAG-tagged proteins were lysed with RIPA buffer (Thermo) with DNase and protease inhibitors (Roche) for 30 minutes on ice. […] After incubation at 21° C. for 1 hour, the agarose beads were rinsed with 200 μL TBS three times, and subsequently eluted by heating at 95° C. in presence of SDS (without DTT). The co-immunoprecipitated p53 was detected with mouse anti-HA antibody or anti-p53.

Binder	Binding intensity (normalized) [1]	Coaggregation (peptide binding) [2]	binding result [3]
B1	19.6 normalized	–	–
B2	17.3 normalized	–	–
B3	2.39 normalized	–	–
B4	26.4 normalized	–	–
B5	8.65 normalized	–	–
B6	4.81 normalized	4.8%	–
B7	4.39 normalized	–	–
B8	5.88 normalized	–	–
B9	10.9 normalized	–	–
B10	3.95 normalized	–	–
B11	1.55 normalized	–	–
B12	33.3 normalized	–	–
B13	17.9 normalized	–	–
B14	16.1 normalized	–	–
B15	23.8 normalized	–	–
B16	10.2 normalized	10.2%	–
B17	9.72 normalized	–	–
B18	17.9 normalized	–	–
B19	26.6 normalized	–	–

Binder	Binding intensity (normalized) [1]	Coaggregation (peptide binding) [2]	binding result [3]
B20	3.03 normalized	–	–
B21	99 normalized	99%	–
B22	100 normalized	–	–
B23	92 normalized	92%	–
B24	79.6 normalized	79.6%	–
B25	6.2 normalized	–	–
B26	6.81 normalized	–	–
B27	77 normalized	77%	–
B28	19.8 normalized	–	–
B29	14.7 normalized	–	–
B30	12.1 normalized	–	–
B31	15.6 normalized	–	–
B32	8.22 normalized	–	–
B33	9.77 normalized	–	–
B34	–	–	no binding
B35	43.4 normalized	43.4%	–
B36	78.9 normalized	78.9%	–
B37	40.2 normalized	–	–
B38	3.67 normalized	–	–

Binder	Binding intensity (normalized) [1]	Coaggregation (peptide binding) [2]	binding result [3]
B39	6.47 normalized	–	–
B40	49.2 normalized	49.2%	–
B41	10.2 normalized	–	–
B42	6.72 normalized	–	–
B43	11.4 normalized	11.4%	–
B44	26.3 normalized	–	–
B45	12.9 normalized	–	–
B46	30.9 normalized	–	–
B47	7.89 normalized	–	–
B48	36.7 normalized	–	–
B49	5.27 normalized	–	–
B50	32.1 normalized	–	–
B51	14.1 normalized	–	–
B52	16.9 normalized	–	–
B53	7.06 normalized	–	–
B54	111 normalized	111%	–
B55	8.54 normalized	–	–
B56	17.2 normalized	–	–
B57	6.48 normalized	–	–
